According to US20260209331A1 (published 2026):

Assays:
[1] = target: T1, P19 subunit of human IL-23 (IL23p19) (UniProt Q9NPF7 20-189); assay: SPR
T1 chain: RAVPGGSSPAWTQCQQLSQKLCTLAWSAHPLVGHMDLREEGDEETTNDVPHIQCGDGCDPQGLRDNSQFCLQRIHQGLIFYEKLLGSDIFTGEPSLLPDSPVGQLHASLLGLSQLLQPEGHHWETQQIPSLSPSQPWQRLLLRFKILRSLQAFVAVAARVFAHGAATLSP

human TNF alpha (TNFα) [2] = target: T2, human TNF alpha (TNFα) (UniProt P01375 77-233); assay: SPR
human TNF alpha (TNFα) [3] = target: T2, human TNF alpha (TNFα); assay: SPR; pre-bound with IL23p19

T2 sequence (P01375 77-233): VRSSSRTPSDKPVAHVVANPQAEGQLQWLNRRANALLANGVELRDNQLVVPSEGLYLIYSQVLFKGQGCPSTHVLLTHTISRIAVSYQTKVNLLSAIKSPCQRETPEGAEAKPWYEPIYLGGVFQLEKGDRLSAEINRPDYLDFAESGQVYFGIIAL

B1: BsAb #D3 (antibody)
chain 1: not shown
chain 2: DIQMTQSPSSLSASVGDRVTITCRTSENIYSYLAWYQQKPGKAPKLLIYNAKTLAEGVPSRFSGSGSGTDFTLTISSLQPEDFATYYCQHHYGIPFTFGQGTKVEIKRTVAAPSVFIFPPSDEQLKSGTASVVCLLNNFYPREAKVQWKVDNALQSGNSQESVTEQDSKDSTYSLSSTLTLSKADYEKHKVYACEVTHQGLSSPVTKSFNRGEC
[1]
  Kd: 200 pM
Human TNF alpha (TNFα) [2]
  Kd: 160 pM
Human TNF alpha (TNFα) [3]
  Kd: 120 pM

B2: BsAb #B7 (antibody)
chain 1: not shown
chain 2: B1 chain 2
[1]
  Kd: 100 pM
Human TNF alpha (TNFα) [2]
  Kd: 870 pM
Human TNF alpha (TNFα) [3]
  Kd: 930 pM

B3: BsAb #A7 (antibody)
chain 1: not shown
chain 2: B1 chain 2
chain 3: not shown
chain 4: not shown
[1]
  Kd: 80 pM
Human TNF alpha (TNFα) [2]
  Kd: 580 pM

B4: BsAb #D4 (antibody)
chain 1: not shown
chain 2: B1 chain 2
[1]
  Kd: 110 pM
Human TNF alpha (TNFα) [2]
  Kd: 490 pM
Human TNF alpha (TNFα) [3]
  Kd: 410 pM

B5: BsAb #C8 (antibody)
chain 1: not shown
chain 2: EIVLTQSPATLSLSPGERATLSCRASQSVYSYLAWYQQKPGQAPRLLIYDASNRATGIPARFSGSGSGTDFTLTISSLEPEDFAVYYCQQRSNWPPFTFGPGTKVDIKGGGGSGGGGSGGGGSDIQMTQSPSSLSASVGDRVTITCRTSENIYSYLAWYQQKPGKAPKLLIYNAKTLAEGVPSRFSGSGSGTDFTLTISSLQPEDFATYYCQHHYGIPFTFGQGTKVEIKRTVAAPSVFIFPPSDEQLKSGTASVVCLLNNFYPREAKVQWKVDNALQSGNSQESVTEQDSKDSTYSLSSTLTLSKADYEKHKVYACEVTHQGLSSPVTKSFNRGEC
[1]
  Kd: 1660 pM
Human TNF alpha (TNFα) [2]
  Kd: 100 pM

B6: BsAb #B8 (antibody)
chain 1: not shown
chain 2: B1 chain 2
[1]
  Kd: 70 pM
Human TNF alpha (TNFα) [2]
  Kd: 420 pM
Human TNF alpha (TNFα) [3]
  Kd: 410 pM

B7: BsAb #A6 (antibody)
chain 1: EIVLTQSPATLSLSPGERATLSCRASQSVYSYLAWYQQKPGQAPRLLIYDASNRATGIPARFSGSGSGTDFTLTISSLEPEDFAVYYCQQRSNWPPFTFGPGTKVDIKASTKGPSVFPLAPSSKSTSGGTAALGCLVKDYFPEPVTVSWNSGALTSGVHTFPAVLQSSGLYSLSSVVTVPSSSLGTQTYICNVNHKPSNTKVDKKV
chain 2: not shown
chain 3: not shown
chain 4: not shown
[1]
  Kd: 40 pM
Human TNF alpha (TNFα) [2]
  Kd: 390 pM

B8: BsAb #A8 (antibody)
chain 1: B7 chain 1
chain 2: B1 chain 2
chain 3: not shown
chain 4: not shown
[1]
  Kd: 80 pM
Human TNF alpha (TNFα) [2]
  Kd: 1090 pM
